Results taken from patent publication US12428446B2, “Peptide compound or pharmaceutically acceptable salt thereof” (Eyebio Korea, priority 2019, dated 2025).
Primed or numbered codes have the meaning given here. Where no end group is shown, it is not given here. [ ]: non-standard residue; d: D form. The star is where a group is joined. Pro(cis-4-F) = O=C(O)[C@@H]1C[C@H](F)CN1; Pro(4,4-Me2) = CC1(C)CN[C@H](C(=O)O)C1; Asu′ = aspartimide (aminosuccinimide); Hyp = O=C(O)[C@@H]1C[C@@H](O)CN1; OiPr = CC(C)O*

Legend:
[1] = Evaluation of dissolution stability (content change on storage in dissolved state); type: physicochemical; settings: 1 mg/1 ml dissolved state, 40° C. and RH 75%
[2] = system: IL-6 secretion, Raw 264.7 cells; assay: Anti-inflammatory efficacy: IL-6 ELISA in LPS-stimulated Raw 264.7 macrophages; type: cell-based, mouse; settings: for IL-6 level increased by LPS: 1 h pretreatment, LPS 1 μg/ml 24 h; for anti-inflammatory activity by regulating the secretion of IL-6: summary, concentration not given
Procedure: (§1) An anti-inflammatory efficacy was evaluated for representative examples of the above examples. Specifically, in order to confirm whether Examples 10, 32, 41, 55, 59 and 91, which are representative examples of 5 amino acid residues, Examples 11 and 30, which are representative examples of 6 amino acid residues, Example 86, which is a representative example of 7 amino acid residues, and Examples 103 and 104, which are representative examples of 8 amino acid residues, have an anti-inflammatory effect, a change in the secretion amount of inflammatory cytokines was confirmed by enzyme-linked immunosorbent assay (ELISA) using Raw 264.7 cells, which are macrophage (monocyte) cell lines.
(§2) Specifically, the Examples were diluted in Raw264.7 cells (Korean Cell Line Bank, 40071) at a concentration of 10 nM, 100 nM, 1 μM, and 10 μM, respectively, and pretreated for 1 hour, and then LPS (Sigma, L6529) at a concentration of 1 μg/ml was added to induce an inflammatory response. After 24 hours of induction, the cell culture supernatant was collected and analyzed. Enzyme-linked immunosorbent assay was performed using Mouse IL-6 Quantikine ELISA Kit (R&D systems, M6000B), TNF-alpha Quantikine ELISA Kit (R&D systems, MTA00B), Mouse IL-1 beta/IL-1F2 Quantikine ELISA Kit (R&D systems, MLB00C) in accordance with the manufacturer's manual.

[3] = system: IL-1β secretion, Raw 264.7 cells; assay: Anti-inflammatory efficacy: IL-1β ELISA in LPS-stimulated Raw 264.7 macrophages; type: cell-based, mouse; settings: for IL-1β level increased by LPS: 1 h pretreatment, LPS 1 μg/ml 24 h; for anti-inflammatory effect by regulating the secretion of IL-1β: summary, concentration not given
Procedure: as §1, §2

[4] = system: TNFα secretion, Raw 264.7 cells; assay: Anti-inflammatory efficacy: TNFα ELISA in LPS-stimulated Raw 264.7 macrophages; type: cell-based, mouse; settings: for TNFα level increased by LPS: 1 h pretreatment, LPS 1 μg/ml 24 h; for anti-inflammatory activity by regulating the secretion of TNFα: summary, concentration not given
Procedure: as §1, §2

Substance | Day 1 content (%) [1] [%] | Day 3 content (%) [1] [%] | Day 7 content (%) [1] [%] | Initial content (%) [1] [%] | IL-6 level increased by LPS ([2]; 10 nM peptide) | anti-inflammatory activity by regulating the secretion of IL-6 [2] | IL-1β level increased by LPS ([3]; 100 nM peptide) | anti-inflammatory effect by regulating the secretion of IL-1β [3] | IL-1β level increased by LPS ([3]; 10 nM peptide) | IL-1β level increased by LPS ([3]; 1 μM peptide) | TNFα level increased by LPS ([4]; 10 nM peptide) | TNFα level increased by LPS ([4]; 1 μM peptide) | anti-inflammatory activity by regulating the secretion of TNFα [4] | IL-1β level increased by LPS ([3]; 10 μM peptide) | IL-6 level increased by LPS ([2]; 1 μM peptide) | TNFα level increased by LPS ([4]; 10 μM peptide)
QDGLAG [Example 30] | 95.61 | 94.27 | 91.57 | 96.44 | significantly reduced | significant anti-inflammatory activity | – | – | – | – | – | – | – | – | – | –
4,4-dimethyl Pro-Gly-Gln-Asp-Gly ([Pro(4,4-Me2)]GQDG) [Example 55] | 94.34 | 90.29 | 81.00 | 97.82 | – | – | significantly reduced | significant anti-inflammatory effect | – | – | – | – | – | – | – | –
Hyp-Gly-Gln-Asp-Leu ([Hyp]GQDL) [Example 32] | 96.81 | 93.57 | 90.50 | 98.05 | – | significant anti-inflammatory activity | significantly reduced | significant anti-inflammatory effect | significantly reduced | significantly reduced | – | – | – | – | – | –
Hyp-Gly-Gln-Asp-Gly ([Hyp]GQDG) [Example 10] | – | 86.65 | 78.68 | 98.76 | – | – | significantly reduced | significant anti-inflammatory effect | – | significantly reduced | significantly reduced | significantly reduced | significant anti-inflammatory activity | – | – | –
Hyp-Gly-Gln-Glu-Val ([Hyp]GQEV) [Example 91] | 99.10 | 98.74 | 98.68 | 99.08 | – | significant anti-inflammatory activity | reduced | significant anti-inflammatory effect | reduced | reduced | – | – | – | reduced | significantly reduced | –
Hyp-Gly-Gln-Asp-Gly-Leu ([Hyp]GQDGL) [Example 11] | 91.37 | 81.21 | 64.19 | 98.96 | – | – | – | – | – | – | – | – | significant anti-inflammatory activity | – | – | significantly reduced
Hyp-Gly-Gln-Asu-Gly-Leu-Ala-Gly ([Hyp]GQ[Asu′]GLAG) [Example 103] | 97.20 | 96.90 | 94.88 | 97.09 | – | – | – | significant anti-inflammatory effect | – | significantly reduced | – | – | – | – | – | –
cis-4F-Pro-Gly-Gln-Asp-Gly ([Pro(cis-4-F)]GQDG) [Example 41] | 93.20 | 91.07 | 85.34 | 96.95 | – | significant anti-inflammatory activity | significantly reduced | significant anti-inflammatory effect | – | – | – | – | – | – | significantly reduced | –
Gln-Asu-Gly-Leu-Ala-Gly-Pro-Lys (Q[Asu′]GLAGPK) [Example 104] | 96.52 | 93.78 | 93.01 | 94.22 | – | – | – | – | – | – | significantly reduced | – | significant anti-inflammatory activity | – | – | –
Hyp-Gly-Gln-Glu-Leu-Leu-Ala ([Hyp]GQELLA) [Example 86] | 97.40 | 97.77 | 97.55 | 98.16 | – | – | – | significant anti-inflammatory effect | significantly reduced | significantly reduced | – | – | – | significantly reduced | – | –
Hyp-Gly-Gln-D Asp-Gly ([Hyp]GQ[dD]G) [Example 59] | 98.78 | 98.76 | 98.75 | 98.78 | – | – | significantly reduced | significant anti-inflammatory effect | – | – | – | – | significant anti-inflammatory activity | – | – | –
Hyp-Gly-Gln-Asu-Gly (isopropyl ester) [Example 109] | 79.15 | 69.45 | 59.07 | 85.34 | – | – | – | – | – | – | – | – | – | – | – | –
Hyp-Gly-Gln-Asp-Leu-Leu ([Hyp]GQDLL) [Example 35] | 97.50 | 95.78 | 93.68 | 98.51 | – | – | – | – | – | – | – | – | – | – | – | –
Hyp-Gly-Gln-Leu-Val-Leu-Ala ([Hyp]GQLVLA) [Example 97] | 95.01 | 94.31 | 94.08 | 97.08 | – | – | – | – | – | – | – | – | – | – | – | –
Hyp-Gly-Gln-Ala-Gly-Leu-Ala ([Hyp]GQAGLA) [Example 14] | 96.58 | 96.07 | 95.55 | 97.13 | – | – | – | – | – | – | – | – | – | – | – | –
Hyp-Gly-Gln-Asp-Gly-Val ([Hyp]GQDGV) [Example 71] | 93.07 | 88.76 | 82.04 | 95.21 | – | – | – | – | – | – | – | – | – | – | – | –
Hyp-Gly-Gln-Leu-Leu-Leu ([Hyp]GQLLL) [Example 98] | 99.07 | 98.86 | 98.74 | 99.03 | – | – | – | – | – | – | – | – | – | – | – | –
Hyp-Gly-Gln-Asp-Val ([Hyp]GQDV) [Example 21] | 79.91 | 77.37 | 69.10 | 84.05 | – | – | – | – | – | – | – | – | – | – | – | –
Hyp-Gly-Gln-D Asp-Gly-Leu ([Hyp]GQ[dD]GL) [Example 61] | 87.65 | 83.70 | 56.36 | 92.80 | – | – | – | – | – | – | – | – | – | – | – | –
Hyp-Gly-Gln-Asu-Gly-Leu (isopropyl ester) [Example 111] | 90.71 | 82.07 | 69.37 | 97.48 | – | – | – | – | – | – | – | – | – | – | – | –
Hyp-Gly-Gln-Asp (isopropyl ester)-Gly ([Hyp]GQD(OiPr)G) [Example 115] | 88.57 | 82.00 | 71.64 | 92.71 | – | – | – | – | – | – | – | – | – | – | – | –
